Results published in patent publication US7358088B2, “Peptides and compositions which modulate apoptosis” (ImmunoGen, Inc., priority 1995, dated 2008).
Ends that are not written are not given here. * marks the point of attachment. Biotin = O=C1N[C@H]2[C@H](CS[C@H]2CCCCC(=O)*)N1

Assays:
[1] = tested on: Hela (cervical carcinoma) cells; assay: Transient transfection cell killing assay in Hela cells; assay type: cell-based, human
Protocol: (§1) Cells were fixed and stained with X-gal at 24 hours post-transfection, and the number of blue cells (β-galactosidase-positive) counted by microscopic examination. B. Mouse Embryonic Fibroblasts (MEF) lacking functional p53 (p53^−/−MEF) were co-transfected as described in(A). C. Hela cells, derived from cervical carcinoma, were co-transfected as described in (A). D. BT549 cells, derived from breast carcinoma, were co-transfected as described in (A).
(§2) The transient transfection assay procedure is similar to that previously described for detecting apoptosis induced by IL-1E-converting enzyme (Miura et al., Cell 75: 653-660 (1993); Kumar et al., Genes Dev. 8: 1613-1626 (1994); Wang et al., Cell 78: 739-750 (1994). One day prior to transfection, Rat-1 cells were plated in 24 well dishes at 3.5X10^4 cells/well. The following day, the cells were transfected with a marker plasmid encoding β-galactosidase (0.16 μg), in combination with an expression plasmid encoding Bak (0.42 μg), by the Lipofectamine procedure (Gibco/BRL). At 24 hours post transfection, cells were fixed and stained with X-Gal to detect J-galactosidase expression in cells that received plasmid DNA (Miura et al., supra). The number of blue cells was counted by microscopic examination and scored as either live (flat blue cells) or dead (round blue cells). […]
(§3) Bak cell killing activity was assessed in several additional cell lines. […]

[2] = tested on: Mouse Embryonic Fibroblasts (MEF) lacking functional p53; assay: Transient transfection cell killing assay in p53-/- fibroblasts; assay type: cell-based; conditions: p53-/- transformed mouse fibroblasts, co-transfection with β-gal
Protocol: as §1, §2, §3

[3] = tested on: BT549 (breast carcinoma) cells; assay: Transient transfection cell killing assay in BT549 cells; assay type: cell-based, human
Protocol: as §1, §2, §3

Bcl-xL [4] = target: T1, Bcl-xL (Homo sapiens, UniProt Q07817); assay: Co-immunoprecipitation of epitope-tagged proteins from transfected COS cells; assay type: cell-based; conditions: anti-HA immunoprecipitation, western blot
Protocol: B). Bak/Bcl-xL interactions detected in transfected cells. Plasmids expressing epitope-tagged forms of Bak and Bcl-xL (HA-Bak and Flag tag-Bcl-xL) were co-transfected into COS cells. HA-Bak was immunoprecipitated (anti-HA IP) from transfected cell lysates and associated Bcl-xL was detected by Western blot analysis with an anti-Flag tag antibody.
COS cells were grown in Dulbecco's modified Eagle's medium (Life Technologies, Inc.) supplemented with 10% bovine calf serum, 2% L-glutamine and 1% pen/strep (Life Technologies, Inc.). Cells were seeded at 2.0×10^5 cells/35 mm well and transfected with expression plasmids 24 hours later using Lipofectamine as described by the supplier (Life Technologies, Inc.). Bak (and Bak mutants) was expressed as a fusion protein with the HA epitope tag at its amino terminus. Bcl-xL was also expressed with an amino terminal epitope tag (Flag; Kodak). At 24 hours post-transfection, cells were washed with phosphate buffered saline and lysed in NP-40 Lysis buffer also containing 1 mM PMSF, […] pepstatin, and […] leupeptin. The lysates were incubated with anti-HA antibody (12CA5, Boehringer Mannheim) for 1 hour and with […] BSA-washed Protein A-agarose beads (50% slurry) for an additional hour. The beads were washed twice with NP-40 lysis buffer followed by two washes with NP-40 lysis buffer without NP-40. […]

Rat-1 cells = assay: Transient transfection cell killing assay (loss of β-galactosidase-positive blue cells); assay type: cell-based; conditions: Rat-1 cells co-transfected with β-galactosidase marker plasmid, 24 hours post transfection, relative to control vector
Protocol: The transient transfection assay procedure is similar to that previously described for detecting apoptosis induced by IL-1E-converting enzyme (Miura et al., Cell 75: 653-660 (1993); Kumar et al., Genes Dev. 8: 1613-1626 (1994); Wang et al., Cell 78: 739-750 (1994). One day prior to transfection, Rat-1 cells were plated in 24 well dishes at 3.5X10^4 cells/well. The following day, the cells were transfected with a marker plasmid encoding β-galactosidase (0.16 μg), in combination with an expression plasmid encoding Bak (0.42 μg), by the Lipofectamine procedure (Gibco/BRL). At 24 hours post transfection, cells were fixed and stained with X-Gal to detect J-galactosidase expression in cells that received plasmid DNA (Miura et al., supra). The number of blue cells was counted by microscopic examination and scored as either live (flat blue cells) or dead (round blue cells). The cell killing activity of Bak in this assay is manifested by a large reduction in the number of blue cells obtained relative to co-transfection of the β-gal plasmid with a control expression vector (i.e., with no bak cDNA insert).
The interpretation that loss of blue cells reflects the cell killing function of Bak is supported by a variety of observations: • 1. Rat-1 cells are rapidly killed by enforced Bak expression in stable transfection assays; • 2.
Enforced bak expression induces apoptosis in stable Rat-1 cell lines transfected with an inducible bak expression plasmid. In order to more rapidly assess the cell killing function of a large number of bak mutants, a transient transfection assay was employed. Rat-1 cells were transfected with a marker plasmid encoding β-galactosidase, in combination with an expression plasmid encoding Bak, or various control plasmids.

Bcl-xL [5] = target: T1, Bcl-xL; assay: In vitro protein binding assay, 35S labeled protein with GST-Bcl-xL on glutathione-agarose beads; parameters: made in house; host or cells: E. coli; conditions: in vitro translated 35S labeled protein; GST alone as specificity control
Protocol: A). Bak/Bcl-xL interactions measured in vitro. ^35S labeled in vitro translated Bak (lane 1) was mixed either with GST-Bcl-xL (lane 2) or GST (lane 3). The complexes were captured on glutathione-agarose beads, and bound ^35S labeled Bak protein was detected by electrophoresis on SDS polyacrylamide gels followed by autoradiography.
The beads were removed by centrifugation and the supernatants were incubated with GST or GST-Bcl-xL (final concentration […]) at 4° C. for 1 hour. The GST fusion proteins and any interacting proteins were recovered by incubation for 1 hour with an additional […] of GSH-agarose beads. The beads were washed twice with NP-40 lysis buffer followed by two washes with NP-40 lysis buffer without NP-40. Proteins were eluted from the beads by incubation in SDS-PAGE sample buffer at 100° C. for 5 min and loaded onto 4-20% SDS-polyacrylamide gels. Following electrophoresis, gels were fixed and incubated in a fluorography enhancing solution (Amplify; Amersham). The gels were dried and subjected to autoradiography at −70° C.

Bip1a = target: T2, Bip1a (Homo sapiens, UniProt Q13323); assay: GST-PEM in vitro binding of 35S labeled Bip1a; conditions: GST fusion, in vitro translated 35S labeled Bip1a
T2 construct: host or cells: coupled transcription/translation in rabbit reticulocyte lysate
T2 sequence (Q13323 1-160): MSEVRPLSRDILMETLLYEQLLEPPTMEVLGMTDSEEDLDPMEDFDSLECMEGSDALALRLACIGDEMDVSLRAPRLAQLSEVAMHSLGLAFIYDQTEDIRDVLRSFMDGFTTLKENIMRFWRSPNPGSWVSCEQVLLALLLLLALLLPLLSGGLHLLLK
Source text: (§4) Complexes were captured with glutathione-agarose beads, washed, and bound proteins detected by polyacrylamide gel electrophoresis and autoradiography. […] Thus, the GD domain can mediate interaction not only with Bcl-xL but also Bak and Bax.
(§5) Complexes were captured with glutathione-agarose beads, washed, and bound proteins detected by polyacrylamide gel electrophoresis and autoradiography.

Bak = target: T3, Bak (Homo sapiens, UniProt Q16611); assay: GST-PEM in vitro binding of 35S labeled Bak; conditions: GST fusion, in vitro translated 35S labeled Bak; GST alone as control
T3 construct: diminished relative to full length Bak; host or cells: coupled transcription/translation in rabbit reticulocyte lysate
T3 sequence (Q16611 1-211): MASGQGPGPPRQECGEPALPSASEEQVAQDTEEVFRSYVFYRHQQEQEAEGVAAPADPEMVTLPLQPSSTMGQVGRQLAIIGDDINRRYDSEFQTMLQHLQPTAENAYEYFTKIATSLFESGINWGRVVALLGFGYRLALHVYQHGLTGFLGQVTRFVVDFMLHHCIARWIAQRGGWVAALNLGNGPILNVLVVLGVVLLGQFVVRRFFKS
Source text: as §4, §5

Bcl-xL [6] = target: T1, Bcl-xL; assay: GST-PEM in vitro binding of 35S labeled Bcl-xL; parameters: made in house; host or cells: E. coli; conditions: GST fusion, in vitro translated 35S labeled Bcl-xL; GST alone as control
Source text: as §4, §5

Bax = target: T4, Bax (Homo sapiens, UniProt Q07812); assay: GST-PEM in vitro binding of 35S labeled Bax; conditions: GST fusion, in vitro translated 35S labeled Bax; GST alone as control
T4 construct: host or cells: coupled transcription/translation in rabbit reticulocyte lysate
Source text: as §4, §5

GST-Bcl-xL = target: T5, GST-Bcl-xL (Homo sapiens, UniProt Q07817); assay: High through-put screening assay 1: biotinylated GD peptide on GST-Bcl-xL-coated multiwell plates, ELISA; assay type: binding; conditions: ELISA with streptavidin-conjugated HRP, 4° C. for 1 hour
T5 construct: made in house; host or cells: E. coli
Protocol: Multiwell plates (Nunc Maxisorp) were coated with GST-Bcl-xL and blocked with 1% normal goat serum in PBS. A N-biotinylated GD peptide corresponding to Bak (71-89; […] [SEQ ID NO: 35]) was added and the plates were incubated at 4° C. for 1 hour. The plates were washed to remove unbound GD peptide and the amount of bound peptide was determined by ELISA using streptavidin-conjugated horse radish peroxidase. Coating with GST-Bcl-xL was omitted in the control wells.
According to the present example, multiwell plates coated with GST-Bcl-xL were incubated with a labeled GD domain peptide probe. […] More specifically, wells in a multiwell plate were coated without (control) or with GST-Bcl-xL and then incubated with a GD domain peptide derived from the Bcl-2 homolog Bak (amino acid residues 71-89; […] [SEQ ID NO: 35]). The peptide was labeled by biotinylation at the amino terminus to allow detection and quantitation of bound peptide using streptavidin-conjugated horse radish peroxidase (HRP) in a standard ELISA procedure. […] Compounds that antagonize GD domain-mediated interactions can be conveniently identified using this assay by adding candidate compounds to the wells during the binding step. Those compounds that disrupt the interaction of the biotinylated GD domain peptide with GST-Bcl-xL will cause a decrease in the ELISA signal.

[7] = target: T6, Bcl-xL/Bak GD domain interaction (Homo sapiens, UniProt Q07817); assay: High through-put screening assay 2: GST-Bcl-xL binding to biotinylated Bak GD peptide on neutravidin wells, ELISA; conditions: peptide bound to neutravidin-coated wells, ELISA with anti-GST-HRP
T6 construct: made in house; host or cells: E. coli
Protocol: An assay was developed to screen for compounds that block the interaction between the Bcl-2 homologs, Bcl-xL and Bak. A synthetic peptide corresponding to the Bak GD binding domain ([…] [SEQ ID NO: 35]) was biotinylated and bound to wells coated with neutravidin. […] Peptides encompassing the GD domain from various Bcl-2 family members were tested for their ability to block GD domain-mediated interactions in this assay. Peptides tested: Bcl-w [SEQ ID NO: 39] […] ([…]), Bak [SEQ ID NO: 36]([…]), Bak-15 [SEQ ID NO: 37] ([…]), Bak-15L78A [SEQ ID NO: 38] ([…]), control (no peptide).
In a modification of the high through-put screening assay 1 described herein, wells are coated with an avidin derivative, to which a biotinylated peptide/protein is bound. A GST-fusion protein that can interact with the biotinylated peptide/protein is added in the presence or absence of test compounds. The plates are incubated and then unbound GST-fusion protein is removed by washing. The amount of GST-fusion protein specifically bound to the tethered peptide/protein is determined by ELISA using an anti-GST antibody conjugated to horse radish peroxidase. Compounds which block the interaction between the biotinylated peptide/protein and the GST-fusion protein cause a decrease in the ELISA signal.
In a specific example, an assay was developed to screen for compounds that block the interaction between the Bcl-2 homologs, Bcl-xL and Bak. A biotinylated Bak GD domain peptide (amino acid residues 71-89; N-biotinylated […] [SEQ ID NO: 35]) was bound to wells coated with neutravidin. […] Using this assay, peptides from Bcl-2 family members were identified which block the Bcl-xL/Bak GD domain interaction (FIG. 10).

T1 sequence (Q07817 whole entry): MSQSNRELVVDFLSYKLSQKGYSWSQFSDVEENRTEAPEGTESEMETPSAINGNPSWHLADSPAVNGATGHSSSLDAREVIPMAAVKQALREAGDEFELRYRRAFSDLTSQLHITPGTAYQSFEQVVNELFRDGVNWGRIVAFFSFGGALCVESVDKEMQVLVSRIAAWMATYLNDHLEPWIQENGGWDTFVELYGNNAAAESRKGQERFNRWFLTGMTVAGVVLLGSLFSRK
T4 sequence (Q07812 whole entry, the tested form may be a part): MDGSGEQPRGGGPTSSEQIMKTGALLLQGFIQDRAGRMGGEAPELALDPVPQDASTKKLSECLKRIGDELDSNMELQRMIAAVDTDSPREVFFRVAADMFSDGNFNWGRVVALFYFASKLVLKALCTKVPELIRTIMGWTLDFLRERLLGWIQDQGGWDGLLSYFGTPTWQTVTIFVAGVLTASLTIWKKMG
T5 sequence (Q07817 whole entry): as the sequence (Q07817 whole entry) above
T6 sequence (Q07817 whole entry, the tested form may be a part): as the sequence (Q07817 whole entry) above

Substance: Bak: Bcl-2 related cell death protein, HA-epitope tagged, expressed from plasmid or in vitro translated
- cell killing (number of blue cells) [1]: can kill human tumor cells
- cell killing (number of blue cells) [2]: greatly reduced the number of blue cells
- cell killing (number of blue cells) [3]: can kill human tumor cells
- interaction with Bcl-xL in transfected cells (Bcl-xL [4]): specific Bak/Bcl-xL interaction could also be detected
- cell killing activity (reduction in number of blue β-gal expressing cells) (Rat-1 cells): large reduction in the number of blue (β-gal expressing) cells
- binding to GST-Bcl-xL in vitro (Bcl-xL [5]): binds

Substance: GST-PEM: portion of Bak (PEM, residues 58-103) encompassing the GD domain fused to GST, bacterially expressed
- interaction with Bip1a (Bip1a): does not interact
- interaction with Bak (homodimerization) (Bak): interact specifically
- interaction with Bcl-xL (Bcl-xL [6]): interact specifically
- interaction with Bax (heterodimerization) (Bax): interact specifically

Substance: MGQVGRQLAIIGDDINRRY (Biotin-MGQVGRQLAIIGDDINRRY) [SEQ ID NO: 35, Bak GD domain peptide, amino acid residues 71-89, biotinylated at the amino terminus]
- binding of biotinylated peptide to GST-Bcl-xL-coated wells (GST-Bcl-xL): specifically interacts in a concentration-dependent manner
- binding of GST-Bcl-xL to the tethered biotinylated peptide [7]: bind specifically
